One experiment has as its target HA-tagged Ran (UniProt P62826). The experiment is described as follows: co-immunoprecipitation in tsA-201 cells, HA antibody pull-down of HA-Ran, anti-FLAG Western blot quantified. On the technique in general: A western blot detects proteins with antibodies after separation by electrophoresis.
Another experiment deals with GST-Ran (UniProt P62826). The experiment is described as follows: GST pull-down, GST-Ran bait, lysate of tsA201 cells with FLAG-MOG1 as prey, anti-FLAG Western blot quantified.

On to “E50K MOG1 mutant tagged with FLAG (from UniProt Q9HD47 1-186)”, for which the reduction of binding to Ran compared with the wild-type MOG1 is 92% in the experiment with HA-tagged Ran and 95% with GST-Ran.

The record behind these values is patent US20250092100A1.
